Results from publication PMC8927117, “Structural Insight into the MCM double hexamer activation by Dbf4-Cdc7 kinase” (Nature Communications, 2022).
Where “and” joins values, the source holds several entries; their conditions need not be identical. Equal values may be shown once. Blank lines part the entries; values can stand above or below the binder they belong to.

B2: Dbf4 (subunit of the full-length DDK) (natural protein, budding yeast, UniProt P32325 1-704, looked up)
chain: MVSPTKMIIRSPLKETDTNLKHNNGIAASTTAAGHLNVFSNDNNCNNNNTTESFPKKRSLERLELQQQQHLHEKKRARIERARSIEGAVQVSKGTGLKNVEPRVTPKELLEWQTNWKKIMKRDSRIYFDITDDVEMNTYNKSKMDKRRDLLKRGFLTLGAQITQFFDTTVTIVITRRSVENIYLLKDTDILSRAKKNYMKVWSYEKAARFLKNLDVDLDHLSKTKSASLAAPTLSNLLHNEKLYGPTDRDPRTKRDDIHYFKYPHVYLYDLWQTWAPIITLEWKPQELTNLDELPYPILKIGSFGRCPFIGDRNYDESSYKRVVKRYSRDKANKKYALQLRALFQYHADTLLNTSSVNDQTKNLIFIPHTCNDSTKSFKKWMQEKAKNFEKTELKKTDDSAVQDVRNEHADQTDEKNSILLNETETKEPPLKEEKENKQSIAEESNKYPQRKELAATPKLNHPVLATFARQETEEVPDDLCTLKTKSRQAFEIKASGAHQSNDVATSFGNGLGPTRASVMSKNMKSLSRLMVDRKLGVKQTNGNNKNYTATIATTAETSKENRHRLDFNALKKDEAPSKETGKDSAVHLETNRKPQNFPKVATKSVSADSKVHNDIKITTTESPTASKKSTSTNVTLHFNAQTAQTAQPVKKETVKNSGYCENCRVKYESLEQHIVSEKHLSFAENDLNFEAIDSLIENLRFQI
notes: Dbf4, budding yeast, 704 residues; Stood in the assay as part of the DDK heterodimer

What was measured:
Test in all cases: cryo-EM structure; DDK-DH mixture (ATP-γ-S) mildly crosslinked by Grafix: 20-40% glycerol gradient with 0-0.025% glutaraldehyde, 150 mM KOAc, pH 7.6, 4 °C; States I-IV and Groups I-VI by focused 3D classification
Conditions in all cases: both partners purified
[1] = target: B2
[2] = target: T1, Mcm2 (subunit of the MCM double hexamer) (budding yeast (endogenous in W303), UniProt P29469 1-868)
T1 construct: Mcm2, budding yeast, endogenous protein from its genomic locus; Stood in the assay as a subunit of the DH; source: endogenous, G1 chromatin of budding yeast (W303), purified as part of the DH
T1 sequence (looked up): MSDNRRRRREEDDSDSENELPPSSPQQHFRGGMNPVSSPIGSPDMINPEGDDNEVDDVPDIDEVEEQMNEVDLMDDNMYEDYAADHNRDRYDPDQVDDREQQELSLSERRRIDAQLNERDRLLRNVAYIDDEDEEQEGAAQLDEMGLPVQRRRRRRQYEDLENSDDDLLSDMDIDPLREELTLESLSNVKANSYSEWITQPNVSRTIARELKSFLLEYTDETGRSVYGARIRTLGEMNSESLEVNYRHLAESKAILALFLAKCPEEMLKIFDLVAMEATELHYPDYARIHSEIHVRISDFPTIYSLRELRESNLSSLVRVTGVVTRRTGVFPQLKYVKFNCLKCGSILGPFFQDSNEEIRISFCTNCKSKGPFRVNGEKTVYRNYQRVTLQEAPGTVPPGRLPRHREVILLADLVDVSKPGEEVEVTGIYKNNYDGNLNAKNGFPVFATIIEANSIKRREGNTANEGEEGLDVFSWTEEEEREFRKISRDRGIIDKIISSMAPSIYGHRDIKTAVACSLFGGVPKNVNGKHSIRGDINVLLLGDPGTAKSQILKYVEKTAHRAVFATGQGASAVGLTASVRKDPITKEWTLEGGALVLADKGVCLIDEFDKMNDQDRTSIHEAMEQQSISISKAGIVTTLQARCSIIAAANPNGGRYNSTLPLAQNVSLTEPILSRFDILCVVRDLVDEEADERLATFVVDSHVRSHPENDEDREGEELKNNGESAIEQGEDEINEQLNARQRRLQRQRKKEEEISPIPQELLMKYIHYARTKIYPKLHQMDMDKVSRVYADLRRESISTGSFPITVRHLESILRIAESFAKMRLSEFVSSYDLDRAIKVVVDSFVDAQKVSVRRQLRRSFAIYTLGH

[3] = target: T2, Mcm4 (subunit of the MCM double hexamer) (budding yeast (endogenous in W303), UniProt P30665 1-933)
T2 construct: Mcm4, budding yeast, endogenous protein from its genomic locus; Stood in the assay as a subunit of the DH; source: endogenous, G1 chromatin of budding yeast (W303), purified as part of the DH
T2 sequence (looked up): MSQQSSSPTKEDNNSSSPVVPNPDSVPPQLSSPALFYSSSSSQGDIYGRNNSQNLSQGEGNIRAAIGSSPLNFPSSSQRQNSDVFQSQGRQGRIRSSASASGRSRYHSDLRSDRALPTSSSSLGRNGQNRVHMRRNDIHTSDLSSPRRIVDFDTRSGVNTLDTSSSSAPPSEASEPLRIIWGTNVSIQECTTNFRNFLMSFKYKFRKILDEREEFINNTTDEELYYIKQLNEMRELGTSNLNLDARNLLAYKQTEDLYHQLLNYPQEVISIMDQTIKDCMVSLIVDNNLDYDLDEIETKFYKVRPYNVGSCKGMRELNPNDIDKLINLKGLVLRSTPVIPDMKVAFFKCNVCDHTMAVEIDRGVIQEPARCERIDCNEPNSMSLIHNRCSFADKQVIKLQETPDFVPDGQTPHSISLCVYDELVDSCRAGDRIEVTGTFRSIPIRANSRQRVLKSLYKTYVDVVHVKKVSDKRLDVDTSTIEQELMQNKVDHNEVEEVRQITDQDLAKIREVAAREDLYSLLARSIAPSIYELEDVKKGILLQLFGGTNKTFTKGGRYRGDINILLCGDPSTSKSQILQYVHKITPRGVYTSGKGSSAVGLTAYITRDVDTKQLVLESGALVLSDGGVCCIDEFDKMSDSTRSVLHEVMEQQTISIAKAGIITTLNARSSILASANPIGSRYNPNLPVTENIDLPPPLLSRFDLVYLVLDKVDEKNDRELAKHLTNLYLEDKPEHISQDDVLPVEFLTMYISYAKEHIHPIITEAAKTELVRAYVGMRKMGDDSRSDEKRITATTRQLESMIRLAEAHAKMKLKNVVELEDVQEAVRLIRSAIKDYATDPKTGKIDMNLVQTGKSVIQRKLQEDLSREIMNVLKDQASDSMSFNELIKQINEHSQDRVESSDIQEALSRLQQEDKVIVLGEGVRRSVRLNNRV

[4] = target: T3, Mcm6 (subunit of the MCM double hexamer) (budding yeast (endogenous in W303), UniProt P53091 1-1017)
T3 construct: Mcm6, budding yeast, endogenous protein from its genomic locus; Stood in the assay as a subunit of the DH; source: endogenous, G1 chromatin of budding yeast (W303), purified as part of the DH
T3 sequence (P53091 whole entry): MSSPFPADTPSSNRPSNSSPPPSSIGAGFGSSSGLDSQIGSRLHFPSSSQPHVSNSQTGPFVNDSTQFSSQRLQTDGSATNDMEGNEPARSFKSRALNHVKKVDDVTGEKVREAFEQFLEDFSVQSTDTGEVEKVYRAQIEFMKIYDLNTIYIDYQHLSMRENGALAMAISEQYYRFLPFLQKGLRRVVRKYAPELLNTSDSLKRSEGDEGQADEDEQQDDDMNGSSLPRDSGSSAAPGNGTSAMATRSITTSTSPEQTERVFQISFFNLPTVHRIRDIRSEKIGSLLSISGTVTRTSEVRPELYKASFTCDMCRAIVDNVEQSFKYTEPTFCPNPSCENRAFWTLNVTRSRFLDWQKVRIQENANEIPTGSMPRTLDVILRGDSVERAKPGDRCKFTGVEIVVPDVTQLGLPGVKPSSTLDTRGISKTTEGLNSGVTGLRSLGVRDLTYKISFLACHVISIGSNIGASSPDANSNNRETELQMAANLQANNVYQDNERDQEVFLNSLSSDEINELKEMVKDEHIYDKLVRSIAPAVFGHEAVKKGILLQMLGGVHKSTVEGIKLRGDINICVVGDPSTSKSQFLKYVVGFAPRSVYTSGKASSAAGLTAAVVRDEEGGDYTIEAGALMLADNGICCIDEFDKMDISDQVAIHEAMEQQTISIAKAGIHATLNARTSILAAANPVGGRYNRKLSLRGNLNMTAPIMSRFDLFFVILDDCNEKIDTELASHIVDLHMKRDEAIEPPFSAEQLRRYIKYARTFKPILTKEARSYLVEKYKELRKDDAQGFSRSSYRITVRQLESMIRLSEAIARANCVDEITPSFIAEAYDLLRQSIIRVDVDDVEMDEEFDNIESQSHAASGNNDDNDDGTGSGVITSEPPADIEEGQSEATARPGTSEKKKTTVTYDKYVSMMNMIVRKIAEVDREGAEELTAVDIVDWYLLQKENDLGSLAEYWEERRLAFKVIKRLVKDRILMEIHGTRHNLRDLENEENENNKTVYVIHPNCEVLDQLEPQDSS

[5] = target: T4, MCM double hexamer (Mcm2-7 double hexamer), endogenous, wild type (budding yeast (endogenous in W303), UniProt P29469 1-868; P24279 1-971; P30665 1-933; P29496 1-775; P53091 1-1017; P38132 …)
T4 construct: Mcm2, budding yeast, endogenous protein from its genomic locus; Mcm3, budding yeast, endogenous protein from its genomic locus; Mcm4, budding yeast, endogenous protein from its genomic locus; Mcm5, budding yeast, endogenous protein from its genomic locus; Mcm6, budding yeast, endogenous protein from its genomic locus; Mcm7, budding yeast, endogenous protein from its genomic locus; Either …
T4 sequence (P24279 whole entry, chain 2 of 4): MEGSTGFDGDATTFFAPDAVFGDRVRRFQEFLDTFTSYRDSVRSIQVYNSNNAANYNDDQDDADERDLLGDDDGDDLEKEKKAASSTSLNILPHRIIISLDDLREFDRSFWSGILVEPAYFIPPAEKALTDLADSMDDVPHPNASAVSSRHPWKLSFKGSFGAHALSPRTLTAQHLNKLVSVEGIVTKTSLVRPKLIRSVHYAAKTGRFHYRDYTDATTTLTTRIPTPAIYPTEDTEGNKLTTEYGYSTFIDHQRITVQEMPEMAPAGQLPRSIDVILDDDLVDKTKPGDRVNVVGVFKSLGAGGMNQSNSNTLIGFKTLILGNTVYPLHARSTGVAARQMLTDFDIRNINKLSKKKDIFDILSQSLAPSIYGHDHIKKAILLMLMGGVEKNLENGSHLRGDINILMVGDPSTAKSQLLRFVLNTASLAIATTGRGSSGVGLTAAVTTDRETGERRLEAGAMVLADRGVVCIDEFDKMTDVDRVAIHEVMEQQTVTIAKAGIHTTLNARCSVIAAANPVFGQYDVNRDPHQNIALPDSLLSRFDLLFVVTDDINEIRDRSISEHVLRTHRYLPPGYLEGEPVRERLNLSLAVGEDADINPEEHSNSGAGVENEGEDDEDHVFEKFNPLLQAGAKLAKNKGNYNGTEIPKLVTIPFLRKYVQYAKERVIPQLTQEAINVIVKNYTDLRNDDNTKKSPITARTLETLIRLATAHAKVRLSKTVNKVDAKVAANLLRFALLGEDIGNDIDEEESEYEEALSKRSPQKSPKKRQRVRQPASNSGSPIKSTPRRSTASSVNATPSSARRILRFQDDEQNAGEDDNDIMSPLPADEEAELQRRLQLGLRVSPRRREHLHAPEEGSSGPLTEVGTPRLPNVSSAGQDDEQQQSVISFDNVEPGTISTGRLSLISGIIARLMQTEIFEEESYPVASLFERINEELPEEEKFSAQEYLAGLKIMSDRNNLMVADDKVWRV
T4 sequence (P29496 whole entry, chain 4 of 4): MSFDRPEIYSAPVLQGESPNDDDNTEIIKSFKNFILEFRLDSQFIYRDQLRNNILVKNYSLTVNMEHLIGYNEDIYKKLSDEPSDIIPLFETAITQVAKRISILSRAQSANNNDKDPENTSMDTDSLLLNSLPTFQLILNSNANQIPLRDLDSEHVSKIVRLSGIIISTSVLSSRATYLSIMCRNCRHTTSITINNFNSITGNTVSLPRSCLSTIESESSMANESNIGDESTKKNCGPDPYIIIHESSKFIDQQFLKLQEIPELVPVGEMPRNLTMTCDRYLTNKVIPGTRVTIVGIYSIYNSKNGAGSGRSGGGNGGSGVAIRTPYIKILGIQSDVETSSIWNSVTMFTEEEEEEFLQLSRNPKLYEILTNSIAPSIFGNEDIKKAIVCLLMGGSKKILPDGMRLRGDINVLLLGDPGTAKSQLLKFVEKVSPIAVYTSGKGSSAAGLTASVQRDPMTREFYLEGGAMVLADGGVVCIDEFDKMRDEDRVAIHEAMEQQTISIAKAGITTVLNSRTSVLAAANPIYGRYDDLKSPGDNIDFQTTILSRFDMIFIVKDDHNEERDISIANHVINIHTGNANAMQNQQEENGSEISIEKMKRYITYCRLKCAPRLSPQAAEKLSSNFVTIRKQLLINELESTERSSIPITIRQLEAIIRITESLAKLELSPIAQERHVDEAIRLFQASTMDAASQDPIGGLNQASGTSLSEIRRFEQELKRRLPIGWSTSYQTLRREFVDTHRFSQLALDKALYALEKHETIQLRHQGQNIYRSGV
T4 sequence (P53091 whole entry, chain 5 of 4): as the sequence (P53091 whole entry) above
T4 sequence (P38132 whole entry, chain 6 of 4): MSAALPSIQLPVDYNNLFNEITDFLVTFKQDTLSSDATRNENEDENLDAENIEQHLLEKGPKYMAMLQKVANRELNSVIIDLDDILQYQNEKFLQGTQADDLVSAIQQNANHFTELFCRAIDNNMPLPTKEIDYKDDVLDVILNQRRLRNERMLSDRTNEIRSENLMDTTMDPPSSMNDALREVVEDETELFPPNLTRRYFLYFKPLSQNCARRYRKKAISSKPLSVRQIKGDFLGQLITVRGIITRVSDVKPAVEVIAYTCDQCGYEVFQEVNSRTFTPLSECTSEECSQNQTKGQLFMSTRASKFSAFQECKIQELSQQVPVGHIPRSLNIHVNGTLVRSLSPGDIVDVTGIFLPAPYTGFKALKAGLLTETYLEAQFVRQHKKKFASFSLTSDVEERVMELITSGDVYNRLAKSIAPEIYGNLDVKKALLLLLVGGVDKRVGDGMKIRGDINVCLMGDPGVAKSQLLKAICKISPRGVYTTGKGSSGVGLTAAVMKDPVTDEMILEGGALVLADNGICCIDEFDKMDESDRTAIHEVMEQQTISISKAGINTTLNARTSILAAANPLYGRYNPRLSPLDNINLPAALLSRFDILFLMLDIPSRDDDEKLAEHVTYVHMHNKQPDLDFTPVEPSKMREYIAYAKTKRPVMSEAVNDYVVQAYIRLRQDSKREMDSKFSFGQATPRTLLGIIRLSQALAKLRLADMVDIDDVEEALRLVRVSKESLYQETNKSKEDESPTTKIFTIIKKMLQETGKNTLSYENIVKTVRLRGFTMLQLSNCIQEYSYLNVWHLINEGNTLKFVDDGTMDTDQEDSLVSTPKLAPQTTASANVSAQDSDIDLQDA

binding result [1]: binds
B1: Cdc7 (subunit of the full-length DDK) (enzyme, budding yeast, UniProt P06243 1-507, looked up)
chain: MTSKTKNIDDIPPEIKEEMIQLYHDLPGIENEYKLIDKIGEGTFSSVYKAKDITGKITKKFASHFWNYGSNYVALKKIYVTSSPQRIYNELNLLYIMTGSSRVAPLCDAKRVRDQVIAVLPYYPHEEFRTFYRDLPIKGIKKYIWELLRALKFVHSKGIIHRDIKPTNFLFNLELGRGVLVDFGLAEAQMDYKSMISSQNDYDNYANTNHDGGYSMRNHEQFCPCIMRNQYSPNSHNQTPPMVTIQNGKVVHLNNVNGVDLTKGYPKNETRRIKRANRAGTRGFRAPEVLMKCGAQSTKIDIWSVGVILLSLLGRRFPMFQSLDDADSLLELCTIFGWKELRKCAALHGLGFEASGLIWDKPNGYSNGLKEFVYDLLNKECTIGTFPEYSVAFETFGFLQQELHDRMSIEPQLPDPKTNMDAVDAYELKKYQEEIWSDHYWCFQVLEQCFEMDPQKRSSAEDLLKTPFFNELNENTYLLDGESTDEDDVVSSSEADLLDKDVLLISE
notes: Cdc7, budding yeast; Stood in the assay as part of the DDK heterodimer; also called kinase core

Binder: B2
binding result [2]: binds
binding result [3]: binds
binding result [4]: binds

stoichiometry N [5]: 2 DDK per DH and 1 DDK per DH
B3: Dbf4-dependent kinase Cdc7 (DDK), full-length Cdc7-Dbf4 heterodimer (complex, budding yeast)
chain 1: MVSPTKMIIRSPLKETDTNLKHNNGIAASTTAAGHLNVFSNDNNCNNNNTTESFPKKRSLERLELQQQQHLHEKKRARIERARSIEGAVQVSKGTGLKNVEPRVTPKELLEWQTNWKKIMKRDSRIYFDITDDVEMNTYNKSKMDKRRDLLKRGFLTLGAQITQFFDTTVTIVITRRSVENIYLLKDTDILSRAKKNYMKVWSYEKAARFLKNLDVDLDHLSKTKSASLAAPTLSNLLHNEKLYGPTDRDPRTKRDDIHYFKYPHVYLYDLWQTWAPIITLEWKPQELTNLDELPYPILKIGSFGRCPFIGDRNYDESSYKRVVKRYSRDKANKKYALQLRALFQYHADTLLNTSSVNDQTKNLIFIPHTCNDSTKSFKKWMQEKAKNFEKTELKKTDDSAVQDVRNEHADQTDEKNSILLNETETKEPPLKEEKENKQSIAEESNKYPQRKELAATPKLNHPVLATFARQETEEVPDDLCTLKTKSRQAFEIKASGAHQSNDVATSFGNGLGPTRASVMSKNMKSLSRLMVDRKLGVKQTNGNNKNYTATIATTAETSKENRHRLDFNALKKDEAPSKETGKDSAVHLETNRKPQNFPKVATKSVSADSKVHNDIKITTTESPTASKKSTSTNVTLHFNAQTAQTAQPVKKETVKNSGYCENCRVKYESLEQHIVSEKHLSFAENDLNFEAIDSLIENLRFQI
chain 2: MTSKTKNIDDIPPEIKEEMIQLYHDLPGIENEYKLIDKIGEGTFSSVYKAKDITGKITKKFASHFWNYGSNYVALKKIYVTSSPQRIYNELNLLYIMTGSSRVAPLCDAKRVRDQVIAVLPYYPHEEFRTFYRDLPIKGIKKYIWELLRALKFVHSKGIIHRDIKPTNFLFNLELGRGVLVDFGLAEAQMDYKSMISSQNDYDNYANTNHDGGYSMRNHEQFCPCIMRNQYSPNSHNQTPPMVTIQNGKVVHLNNVNGVDLTKGYPKNETRRIKRANRAGTRGFRAPEVLMKCGAQSTKIDIWSVGVILLSLLGRRFPMFQSLDDADSLLELCTIFGWKELRKCAALHGLGFEASGLIWDKPNGYSNGLKEFVYDLLNKECTIGTFPEYSVAFETFGFLQQELHDRMSIEPQLPDPKTNMDAVDAYELKKYQEEIWSDHYWCFQVLEQCFEMDPQKRSSAEDLLKTPFFNELNENTYLLDGESTDEDDVVSSSEADLLDKDVLLISE
notes: Dbf4, budding yeast, 704 residues; Cdc7, budding yeast; Treated with lambda phosphatase during purification; also called Dbf4-Cdc7 kinase complex; WT DDK
